Data from paper doi:10.1101/2020.11.24.395475.

Target: ARTD2WGR-RD-ART (Homo sapiens, UniProt Q9UGN5 90-583)
Experiment: X-ray crystallography

Sequence of ARTD2WGR-RD-ART (Q9UGN5 90-583): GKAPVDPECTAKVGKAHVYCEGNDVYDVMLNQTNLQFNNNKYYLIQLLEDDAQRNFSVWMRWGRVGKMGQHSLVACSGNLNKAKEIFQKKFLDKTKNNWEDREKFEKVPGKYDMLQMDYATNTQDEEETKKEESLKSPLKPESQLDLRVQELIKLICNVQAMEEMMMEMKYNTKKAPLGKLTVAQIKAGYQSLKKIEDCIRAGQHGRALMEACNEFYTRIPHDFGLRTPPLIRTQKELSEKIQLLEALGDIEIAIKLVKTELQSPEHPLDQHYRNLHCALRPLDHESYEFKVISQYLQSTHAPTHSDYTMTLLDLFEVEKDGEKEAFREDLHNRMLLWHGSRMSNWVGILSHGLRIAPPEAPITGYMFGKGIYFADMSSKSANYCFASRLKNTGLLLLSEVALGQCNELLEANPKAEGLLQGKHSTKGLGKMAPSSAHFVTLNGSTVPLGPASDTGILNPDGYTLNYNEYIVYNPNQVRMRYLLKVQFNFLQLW

B1: DNA-1 (dsDNA)
DNA 1: GACGACCCGGAGCACA
DNA 2: TGTGCTCCGGGTCGTC
modifications: 5'-phosphate on forward strand
B1: binds.
